Experiments:
Assay in all cases: two-hybrid library CCNG1;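 also: natural log of median RNA to DNA barcode read ratio; higher means stronger binding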
[1] = molecular target: T1, 4H331-bH
T1 chain: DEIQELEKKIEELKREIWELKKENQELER

[2] = molecular target: T2, 4H687-bH
T2 chain: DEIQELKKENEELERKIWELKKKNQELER

[3] = molecular target: T3, 4H462-bH
T3 chain: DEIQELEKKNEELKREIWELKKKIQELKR

[4] = molecular target: T4, O4-bN
T4 chain: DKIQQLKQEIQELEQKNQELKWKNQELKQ

[5] = molecular target: T5, 4H2697-bH
T5 chain: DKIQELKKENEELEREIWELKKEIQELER

[6] = molecular target: T6, 4H454-bH
T6 chain: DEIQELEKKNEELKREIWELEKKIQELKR

[7] = molecular target: T7, 4H72-bH
T7 chain: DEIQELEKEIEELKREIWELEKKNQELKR

[8] = molecular target: T8, 4H918-bH
T8 chain: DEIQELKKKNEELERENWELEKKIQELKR

[9] = molecular target: T9, 4H3782-bH
T9 chain: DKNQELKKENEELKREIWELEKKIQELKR

[10] = molecular target: T10, 4H908-bH
T10 chain: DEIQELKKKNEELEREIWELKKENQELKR

[11] = molecular target: T11, 4H717-bH
T11 chain: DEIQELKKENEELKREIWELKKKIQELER

[12] = molecular target: T12, 4H953-bH
T12 chain: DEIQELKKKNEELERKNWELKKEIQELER

[13] = molecular target: T13, 4H3112-bH
T13 chain: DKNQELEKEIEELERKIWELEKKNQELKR

[14] = molecular target: T14, 4H3855-bH
T14 chain: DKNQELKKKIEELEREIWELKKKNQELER

[15] = molecular target: T15, 4H3185-bH
T15 chain: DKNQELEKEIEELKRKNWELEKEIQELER

[16] = molecular target: T16, 4H797-bH
T16 chain: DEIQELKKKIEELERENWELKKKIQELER

[17] = molecular target: T17, 4H3843-bN
T17 chain: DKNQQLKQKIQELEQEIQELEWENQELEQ

[18] = molecular target: T18, 4H568-bH
T18 chain: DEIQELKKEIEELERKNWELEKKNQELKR

[19] = molecular target: T19, 4H3843-bH
T19 chain: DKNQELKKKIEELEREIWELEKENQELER

[20] = molecular target: T20, 4H3606-bH
T20 chain: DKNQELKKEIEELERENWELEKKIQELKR

[21] = molecular target: T21, 4H2729-bH
T21 chain: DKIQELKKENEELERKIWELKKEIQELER

[22] = molecular target: T22, 4H338-bH
T22 chain: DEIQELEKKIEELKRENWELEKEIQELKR

[23] = molecular target: T23, 4H3189-bH
T23 chain: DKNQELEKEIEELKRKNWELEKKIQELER

[24] = molecular target: T24, 4H3427-bH
T24 chain: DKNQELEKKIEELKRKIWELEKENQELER

[25] = molecular target: T25, 4H754-bH
T25 chain: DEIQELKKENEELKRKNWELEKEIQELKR

[26] = molecular target: T26, 4H370-bH
T26 chain: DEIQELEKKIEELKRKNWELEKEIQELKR

[27] = molecular target: T27, 4H883-bH
T27 chain: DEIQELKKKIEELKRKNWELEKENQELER

[28] = molecular target: T28, 4H967-bH
T28 chain: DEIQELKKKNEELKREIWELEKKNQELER

[29] = molecular target: T29, 4H3354-bH
T29 chain: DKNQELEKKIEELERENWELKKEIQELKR

[30] = molecular target: T30, 4H607-bH
T30 chain: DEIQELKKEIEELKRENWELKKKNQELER

[31] = molecular target: T31, 4H4001-bH
T31 chain: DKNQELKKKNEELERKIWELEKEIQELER

[32] = molecular target: T32, 4H2667-bH
T32 chain: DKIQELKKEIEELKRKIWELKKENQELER

B1: 4H2667-bH (peptide)
chain: DKIQELKKEIEELKRKIWELKKENQELER
interaction score [1]: 1.71 | interaction score [2]: -0.168 | interaction score [3]: 1.01 | interaction score [4]: -0.678 | interaction score [5]: 1.31 | interaction score [6]: 0.0385 | interaction score [7]: 0.612 | interaction score [8]: -2.64 | interaction score [9]: -0.0673 | interaction score [10]: -1.3 | interaction score [11]: -0.859 | interaction score [12]: 0.0882 | interaction score [13]: -0.422 | interaction score [14]: 0.693 | interaction score [15]: 0.789 | interaction score [16]: -0.539 | interaction score [17]: 1.56 | interaction score [18]: 0.0192 | interaction score [19]: 1.84 | interaction score [20]: 1.83 | interaction score [21]: 1.75 | interaction score [22]: 1.42 | interaction score [23]: -0.454 | interaction score [24]: 1.38 | interaction score [25]: -0.933 | interaction score [26]: 0.226 | interaction score [27]: 0.434 | interaction score [28]: -0.166 | interaction score [29]: -0.302 | interaction score [30]: 0.145 | interaction score [31]: -2.94 | interaction score [32]: 0.801

Reference: PMC10397247
